This passage reports Thymidine proliferation assay, proliferation index (proliferation index) and IFNγ Elispot (/million splenocytes) results from patent US20180207291A1.

Like-named read-outs stand apart in the source and are kept apart here.

The target of experiment [1] is Human Enolase 241cit peptide as offered to human PBMCs (human).
Experiment [2] deals with Human Enolase 241 wt peptide as offered to human PBMCs (human).
In experiment [3] the target is Human Enolase 241cit peptide as offered to human PBMCs (human). The source holds these as a separate data set.
Experiment [4] addresses Mouse Enolase 241-260 citrullinated peptide presented by HLA-DR4 (mouse; human).

Regarding “PBMCs of healthy donor 1 (cells without a defined receptor)”, the Thymidine proliferation assay, proliferation index (proliferation index) in experiment [1] was found to be 28.6; in experiment [2] it was 1.2. Consider “PBMCs of healthy donor 2 (cells without a defined receptor)”, for which, in experiment [1], the Thymidine proliferation assay, proliferation index (proliferation index) worked out at 2.7. In the case of “PBMCs of healthy donor 4 (cells without a defined receptor)”, the Thymidine proliferation assay, proliferation index (proliferation index) in experiment [3] turned out to be 28. In experiment [4], “Splenocytes of HLA-DR4 transgenic mice immunised with a DNA construct encoding mouse enolase (cells without a defined receptor)” displayed an IFNγ Elispot (/million splenocytes) of 180.
